Reference: patent US20090214489A1 (published 2009)
Where no end group is shown, it is not given here.

What was measured:
[1] = biological target: murine TPO receptor on Balb/C mouse marrow cells (mouse) (UniProt Q08351); assay: cell-based or functional assay
[2] = biological target: T1, full length human TPO-R on transfected Ba/F3 cells (human, UniProt P40238 26-635); assay: cell-based or functional assay
T1 sequence (looked up): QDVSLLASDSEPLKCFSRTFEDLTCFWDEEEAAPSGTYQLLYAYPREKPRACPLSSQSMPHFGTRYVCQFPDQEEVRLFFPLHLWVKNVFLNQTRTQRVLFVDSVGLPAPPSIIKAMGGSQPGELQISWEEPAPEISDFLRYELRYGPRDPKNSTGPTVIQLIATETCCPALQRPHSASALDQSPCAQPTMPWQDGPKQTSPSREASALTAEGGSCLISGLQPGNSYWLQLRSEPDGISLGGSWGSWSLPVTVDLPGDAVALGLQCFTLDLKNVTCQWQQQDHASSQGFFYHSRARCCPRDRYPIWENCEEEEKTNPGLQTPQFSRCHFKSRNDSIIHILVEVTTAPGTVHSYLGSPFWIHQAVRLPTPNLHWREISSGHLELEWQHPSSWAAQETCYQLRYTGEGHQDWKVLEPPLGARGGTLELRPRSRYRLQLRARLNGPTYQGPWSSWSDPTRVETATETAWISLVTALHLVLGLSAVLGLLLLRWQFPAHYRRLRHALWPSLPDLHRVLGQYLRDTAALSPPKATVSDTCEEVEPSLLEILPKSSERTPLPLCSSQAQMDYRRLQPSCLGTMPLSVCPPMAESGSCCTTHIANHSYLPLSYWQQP

rhuTPO (from UniProt P40225 22-353) (ligand)
colonies of 3-5 large cells, mouse marrow in methylcellulose, 1 nM TPO, #1-1 [1]: 15 colonies
colonies of 3-5 large cells, mouse marrow in methylcellulose, 1 nM TPO, #1-2 [1]: 12 colonies
colonies of 3-5 large cells, mouse marrow in methylcellulose, 1 nM TPO, #2-1 [1]: 16 colonies
colonies of 3-5 large cells, mouse marrow in methylcellulose, 1 nM TPO, #2-2 [1]: 13 colonies
colonies of 6-12 large cells, mouse marrow in methylcellulose, 1 nM TPO, #1-1 [1]: 6 colonies
colonies of 6-12 large cells, mouse marrow in methylcellulose, 1 nM TPO, #1-2 [1]: 1 colonies
colonies of 6-12 large cells, mouse marrow in methylcellulose, 1 nM TPO, #2-1 [1]: 8 colonies
colonies of 6-12 large cells, mouse marrow in methylcellulose, 1 nM TPO, #2-2 [1]: 3 colonies

CTRAQFLKGC (not fully specified; cysteine pairing not given here) [Table 8 compound, drawing CHEM-US-00044]
activity (assay not given) [2]: > 10 µm

CNINQLRSIC (not fully specified; cysteine pairing not given here) [Table 8 compound, drawing CHEM-US-00045]
activity (assay not given) [2]: > 10 µm

CNRSQLLAAC (not fully specified; cysteine pairing not given here) [Table 8 compound, drawing CHEM-US-00046]
activity (assay not given) [2]: > 10 µm

CTSTQWLLAC (not fully specified; cysteine pairing not given here) [Table 8 compound, drawing CHEM-US-00047]
activity (assay not given) [2]: > 10 µm

CQRADLINFC (not fully specified; cysteine pairing not given here) [Table 8 compound, drawing CHEM-US-00048]
activity (assay not given) [2]: > 10 µm

CLLSEFLAGQQC (not fully specified; cysteine pairing not given here) [Table 8 compound, drawing CHEM-US-00049]
activity (assay not given) [2]: > 10 µm

CTLGQWLQMGMC (not fully specified; cysteine pairing not given here) [Table 8 compound, drawing CHEM-US-00051]
activity (assay not given) [2]: > 10 µm

CLTGPFVTQWLYEC (not fully specified; cysteine pairing not given here) [Table 8 compound, drawing CHEM-US-00052]
activity (assay not given) [2]: > 10 µm

CTLREFLDPTTAVC (not fully specified; cysteine pairing not given here) [Table 8 compound, drawing CHEM-US-00053]
activity (assay not given) [2]: > 10 µm

CGTEGPTLSTWLDC (not fully specified; cysteine pairing not given here) [Table 8 compound, drawing CHEM-US-00054]
activity (assay not given) [2]: > 10 µm

CELVGPSLMSWLTC (not fully specified; cysteine pairing not given here) [Table 8 compound, drawing CHEM-US-00055]
activity (assay not given) [2]: > 10 µm

CSLKEFLHSGLMQC (not fully specified; cysteine pairing not given here) [Table 8 compound, drawing CHEM-US-00056]
activity (assay not given) [2]: > 10 µm

CTLAEFLASGVEQC (not fully specified; cysteine pairing not given here) [Table 8 compound, drawing CHEM-US-00057]
activity (assay not given) [2]: > 10 µm

CTLKEWLVSHEVWC (not fully specified; cysteine pairing not given here) [Table 8 compound, drawing CHEM-US-00058]
activity (assay not given) [2]: > 10 µm

REGPTLRQWM (not fully specified) [Table 8 compound, drawing CHEM-US-00060]
activity (assay not given) [2]: > 10 µm

REGPTLRQWLMSRS (not fully specified) [Table 8 compound, drawing CHEM-US-00061]
activity (assay not given) [2]: > 10 µm
